Reference: patent publication US20100158922A1

Molecular target: recombinant human IFNγ (human) (UniProt P01579)
Assay: cell-based or functional assay

Sequence of recombinant human IFNγ (human) (P01579 24-166 limits assumed): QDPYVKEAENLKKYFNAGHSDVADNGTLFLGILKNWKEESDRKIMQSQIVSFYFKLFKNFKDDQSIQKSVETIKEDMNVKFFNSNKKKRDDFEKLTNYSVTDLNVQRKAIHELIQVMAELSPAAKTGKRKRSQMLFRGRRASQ

B1: AC1.2R3P7_D3 scFv (scFv, part only; not given: scFv linker, part only)
scFv, part: EVQLLESGGGLVQPGGSLKLSCAASGFTFSSNAMSWVRQAPGKGLEWVSTLTGSGGTAYYADSVEGRFSISRDNSKNTLYLQMNSLRAEDTAVYYCAKGTELVGGGLDNWGQGTLVTVSSNFMLTQPHSLSESPGKTVTISCTGSGGSIATNYVQWYQQRPGSAPTTVIHEDNQRPSGVPDRFSGSIDGSSNSASLTISGLQPEDEADYYCQSYDSDNHHVVFGGGTKLTVLG
Binder B1 has a Percentage inhibition of IFNγ-induced reporter gene expression at 0.011 nM scFv of 20%, a Percentage inhibition of IFNγ-induced reporter gene expression at 0.043 nM scFv of 28% and a Percentage inhibition of IFNγ-induced reporter gene expression at 0.17 nM scFv of 36%. For the same binder, the Percentage inhibition of IFNγ-induced reporter gene expression at 0.68 nM scFv was 55% and the Percentage inhibition of IFNγ-induced reporter gene expression at 2.7 nM scFv was 69%.
